# Test results taken from article PMC3418226.
# Molecular target: SAP (UniProt O60880)
# Test: GST-SAP pull-down, anti-myc blot
# Details: reference: myc-CD3ζ wild type
substance,measurement,setting,value
CD3ζ (from UniProt P20963) Y72F/Y83F (first ITAM),binding against the reference,"sites Y72,Y83",lost
CD3ζ (from UniProt P20963) Y83F,binding against the reference,sites Y83,weaker
CD3ζ (from UniProt P20963) Y72F,binding against the reference,sites Y72,weaker
